The target in test [1] is T1, mouse KCC2 (mKCC2a, SLC12A5), twin-Strep tagged, as prepared for cryo-EM (mouse), Q91V14.
T1 chain: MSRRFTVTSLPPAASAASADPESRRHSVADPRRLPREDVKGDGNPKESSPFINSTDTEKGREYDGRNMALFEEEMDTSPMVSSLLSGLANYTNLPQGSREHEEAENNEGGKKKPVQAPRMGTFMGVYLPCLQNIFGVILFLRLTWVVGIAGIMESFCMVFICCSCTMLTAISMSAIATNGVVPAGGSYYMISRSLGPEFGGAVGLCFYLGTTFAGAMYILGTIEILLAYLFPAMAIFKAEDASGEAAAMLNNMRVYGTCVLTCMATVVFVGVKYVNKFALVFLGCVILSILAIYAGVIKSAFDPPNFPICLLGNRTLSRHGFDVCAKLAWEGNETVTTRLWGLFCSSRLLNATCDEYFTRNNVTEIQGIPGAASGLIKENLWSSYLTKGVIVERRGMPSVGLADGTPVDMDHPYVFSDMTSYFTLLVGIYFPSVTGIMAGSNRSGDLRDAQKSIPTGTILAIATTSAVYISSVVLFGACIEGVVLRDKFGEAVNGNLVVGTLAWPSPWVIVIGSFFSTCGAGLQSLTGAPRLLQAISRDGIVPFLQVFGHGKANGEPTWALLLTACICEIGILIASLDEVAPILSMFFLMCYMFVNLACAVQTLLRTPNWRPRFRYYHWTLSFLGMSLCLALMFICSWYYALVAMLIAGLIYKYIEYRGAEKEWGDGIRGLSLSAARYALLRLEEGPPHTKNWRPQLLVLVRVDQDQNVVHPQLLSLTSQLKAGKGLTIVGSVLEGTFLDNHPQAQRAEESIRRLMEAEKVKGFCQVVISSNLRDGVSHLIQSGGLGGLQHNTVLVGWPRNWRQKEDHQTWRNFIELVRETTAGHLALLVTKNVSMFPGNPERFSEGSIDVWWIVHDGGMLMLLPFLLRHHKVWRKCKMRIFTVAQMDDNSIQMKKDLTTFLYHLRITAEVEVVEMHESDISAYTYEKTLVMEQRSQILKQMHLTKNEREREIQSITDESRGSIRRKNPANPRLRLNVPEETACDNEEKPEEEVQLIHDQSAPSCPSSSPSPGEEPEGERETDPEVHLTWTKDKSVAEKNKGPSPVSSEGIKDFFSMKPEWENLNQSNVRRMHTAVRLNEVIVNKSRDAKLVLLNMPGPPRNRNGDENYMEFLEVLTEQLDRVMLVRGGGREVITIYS
The test can be described thus: cryo-EM structure; single-particle cryo-EM of the purified transporter in 20 mM HEPES pH 7.4, 150 mM NaCl, 0.1% digitonin, ~10 mg/ml; C2 symmetry imposed. The settings on record: remark: other sources report otherwise.

Test [2] addresses T2, human NKCC1 (hNKCC1a, SLC12A2), twin-Strep tagged, as prepared for cryo-EM (human), P55011.
T2 chain: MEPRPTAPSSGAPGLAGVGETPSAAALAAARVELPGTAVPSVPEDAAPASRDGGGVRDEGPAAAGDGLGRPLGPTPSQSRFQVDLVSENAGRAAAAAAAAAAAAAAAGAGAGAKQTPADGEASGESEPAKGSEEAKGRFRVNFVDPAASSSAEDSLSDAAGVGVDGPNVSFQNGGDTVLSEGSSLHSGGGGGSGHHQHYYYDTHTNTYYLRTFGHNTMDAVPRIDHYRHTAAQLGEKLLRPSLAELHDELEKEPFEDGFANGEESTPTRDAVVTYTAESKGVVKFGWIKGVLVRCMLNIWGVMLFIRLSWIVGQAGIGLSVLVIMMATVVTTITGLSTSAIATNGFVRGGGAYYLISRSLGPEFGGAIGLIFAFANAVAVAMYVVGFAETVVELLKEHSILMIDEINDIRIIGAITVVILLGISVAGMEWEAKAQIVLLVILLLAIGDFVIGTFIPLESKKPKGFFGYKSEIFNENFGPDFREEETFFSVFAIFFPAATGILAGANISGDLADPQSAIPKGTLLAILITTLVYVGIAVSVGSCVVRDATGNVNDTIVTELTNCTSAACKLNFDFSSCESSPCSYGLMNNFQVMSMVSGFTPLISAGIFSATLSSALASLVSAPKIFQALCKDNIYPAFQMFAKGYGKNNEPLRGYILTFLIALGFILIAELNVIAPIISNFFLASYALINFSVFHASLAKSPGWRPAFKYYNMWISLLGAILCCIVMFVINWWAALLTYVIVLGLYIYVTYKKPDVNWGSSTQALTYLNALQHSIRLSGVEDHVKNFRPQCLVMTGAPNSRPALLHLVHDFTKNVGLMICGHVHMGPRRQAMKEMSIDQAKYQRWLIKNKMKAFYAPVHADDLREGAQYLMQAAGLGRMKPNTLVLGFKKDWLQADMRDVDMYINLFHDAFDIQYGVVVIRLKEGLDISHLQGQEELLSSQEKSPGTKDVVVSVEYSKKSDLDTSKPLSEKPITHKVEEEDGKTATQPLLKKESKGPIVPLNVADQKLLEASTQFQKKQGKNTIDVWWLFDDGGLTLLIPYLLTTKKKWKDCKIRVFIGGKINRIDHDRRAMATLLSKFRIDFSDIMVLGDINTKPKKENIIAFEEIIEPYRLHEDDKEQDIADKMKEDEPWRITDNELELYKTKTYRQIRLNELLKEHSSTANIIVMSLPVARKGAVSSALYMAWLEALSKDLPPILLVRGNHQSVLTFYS
The description is as above. The settings on record: remark: other sources report otherwise.

B1: mouse KCC2 (mKCC2a, SLC12A5), twin-Strep tagged, as prepared for cryo-EM, Q91V14 1-1138 (natural protein)
chain: T1 chain
modifications: here or on the partner: phosphorylation at T929 and T1029 (confirmed by mass spectrometry); phosphorylation at T929 and T1029 (confirmed by mass spectrometry)
For orientation: stoichiometry N means the number of molecules, sites or subunits per partner or assembly. In test [1], B1 showed a stoichiometry N of 2.

B2: human NKCC1 (hNKCC1a, SLC12A2), twin-Strep tagged, as prepared for cryo-EM, P55011 1-1212 (natural protein)
chain: T2 chain
The molecule B2 came in with a stoichiometry N in test [2] of 2.

The values above are taken from paper PMC7889885.
